Results on 3 variants are retold here after IntAct's records for PubMed 29892012.

Sequences and labels used below:
B1: Vacuolar protein-sorting-associated protein 25 (Homo sapiens), Q9BRG1 (parent)
chain: MAMSFEWPWQYRFPPFFTLQPNVDTRQKQLAAWCSLVLSFCRLHKQSSMTVMEAQESPLFNNVKLQRKLPVESIQIVLEELRKKGNLEWLDKSKSSFLIMWRRPEEWGKLIYQWVSRSGQNNSVFTLYELTNGEDTEDEEFHGLDEATLLRALQALQQEHKAEIITVSDGRGVKFF
partner: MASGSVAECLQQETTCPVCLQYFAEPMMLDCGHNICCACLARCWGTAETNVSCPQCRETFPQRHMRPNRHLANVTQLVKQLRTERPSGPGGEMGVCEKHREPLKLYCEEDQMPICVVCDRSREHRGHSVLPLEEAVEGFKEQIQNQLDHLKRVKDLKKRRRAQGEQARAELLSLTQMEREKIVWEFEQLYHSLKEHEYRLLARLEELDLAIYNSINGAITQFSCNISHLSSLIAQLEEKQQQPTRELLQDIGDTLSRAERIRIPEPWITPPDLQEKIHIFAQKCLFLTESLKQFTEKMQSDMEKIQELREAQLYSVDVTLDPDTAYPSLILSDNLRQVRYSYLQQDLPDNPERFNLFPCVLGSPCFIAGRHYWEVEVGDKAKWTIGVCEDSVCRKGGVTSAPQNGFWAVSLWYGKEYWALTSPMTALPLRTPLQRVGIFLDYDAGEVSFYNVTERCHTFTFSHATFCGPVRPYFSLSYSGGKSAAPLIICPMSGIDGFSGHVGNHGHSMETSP
B2: Zinc finger protein 64 (Homo sapiens), Q9NTW7 (parent)
chain: MNASSEGESFAGSVQIPGGTTVLVELTPDIHICGICKQQFNNLDAFVAHKQSGCQLTGTSAAAPSTVQFVSEETVPATQTQTTTRTITSETQTITVSAPEFVFEHGYQTYLPTESNENQTATVISLPAKSRTKKPTTPPAQKRLNCCYPGCQFKTAYGMKDMERHLKIHTGDKPHKCEVCGKCFSRKDKLKTHMRCHTGVKPYKCKTCDYAAADSSSLNKHLRIHSDERPFKCQICPYASRNSSQLTVHLRSHTASELDDDVPKANCLSTESTDTPKAPVITLPSEAREQMATLGERTFNCCYPGCHFKTVHGMKDLDRHLRIHTGDKPHKCEFCDKCFSRKDNLTMHMRCHTSVKPHKCHLCDYAAVDSSSLKKHLRIHSDERPYKCQLCPYASRNSSQLTVHLRSHTGDTPFQCWLCSAKFKISSDLKRHMIVHSGEKPFKCEFCDVRCTMKANLKSHIRIKHTFKCLHCAFQGRDRADLLEHSRLHQADHPEKCPECSYSCSSAAALRVHSRVHCKDRPFKCDFCSFDTKRPSSLAKHVDKVHRDEAKTENRAPLGKEGLREGSSQHVAKIVTQRAFRCETCGASFVRDDSLRCHKKQHSDQSENKNSDLVTFPPESGASGQLSTLVSVGQLEAPLEPSQDL
partner: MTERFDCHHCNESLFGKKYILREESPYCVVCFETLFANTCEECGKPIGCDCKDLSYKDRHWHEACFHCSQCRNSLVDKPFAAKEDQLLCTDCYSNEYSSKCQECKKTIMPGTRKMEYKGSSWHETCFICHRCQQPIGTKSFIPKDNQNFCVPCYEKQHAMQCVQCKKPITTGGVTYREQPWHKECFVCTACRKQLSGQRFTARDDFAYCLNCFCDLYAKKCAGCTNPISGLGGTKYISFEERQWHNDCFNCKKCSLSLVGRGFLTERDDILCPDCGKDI
B3: Kinetochore protein NDC80 homolog (Homo sapiens), O14777 (parent)
chain: MKRSSVSSGGAGRLSMQELRSQDVNKQGLYTPQTKEKPTFGKLSINKPTSERKVSLFGKRTSGHGSRNSQLGIFSSSEKIKDPRPLNDKAFIQQCIRQLCEFLTENGYAHNVSMKSLQAPSVKDFLKIFTFLYGFLCPSYELPDTKFEEEVPRIFKDLGYPFALSKSSMYTVGAPHTWPHIVAALVWLIDCIKIHTAMKESSPLFDDGQPWGEETEDGIMHNKLFLDYTIKCYESFMSGADSFDEMNAELQSKLKDLFNVDAFKLESLEAKNRALNEQIARLEQEREKEPNRLESLRKLKASLQGDVQKYQAYMSNLESHSAILDQKLNGLNEEIARVELECETIKQENTRLQNIIDNQKYSVADIERINHERNELQQTINKLTKDLEAEQQKLWNEELKYARGKEAIETQLAEYHKLARKLKLIPKGAENSKGYDFEIKFNPEAGANCLVKYRAQVYVPLKELLNETEEEINKALNKKMGLEDTLEQLNAMITESKRSVRTLKEEVQKLDDLYQQKIKEAEEEDEKCASELESLEKHKHLLESTVNQGLSEAMNELDAVQREYQLVVQTTTEERRKVGNNLQRLLEMVATHVGSVEKHLEEQIAKVDREYEECMSEDLSENIKEIRDKYEKKATLIKSSEE

The variants in the first assay derive from B1. The following applies: with tri27_human TRIM27, P14373.
For P58Q, the “effect of a mutation on the interaction” value is “disrupting interaction strength”.

The variants in another assay derive from B2. Conditions: with fhl2_human FHL2, Q14192.
In the case of D227E, the “effect of a mutation on the interaction” value is on record as “with no effect”.

Variants of B3 are the subject of the next assay. The following applies: with tnip1_human TNIP1, Q15025.
Sequence of tnip1_human TNIP1, Q15025 (Q15025 whole entry): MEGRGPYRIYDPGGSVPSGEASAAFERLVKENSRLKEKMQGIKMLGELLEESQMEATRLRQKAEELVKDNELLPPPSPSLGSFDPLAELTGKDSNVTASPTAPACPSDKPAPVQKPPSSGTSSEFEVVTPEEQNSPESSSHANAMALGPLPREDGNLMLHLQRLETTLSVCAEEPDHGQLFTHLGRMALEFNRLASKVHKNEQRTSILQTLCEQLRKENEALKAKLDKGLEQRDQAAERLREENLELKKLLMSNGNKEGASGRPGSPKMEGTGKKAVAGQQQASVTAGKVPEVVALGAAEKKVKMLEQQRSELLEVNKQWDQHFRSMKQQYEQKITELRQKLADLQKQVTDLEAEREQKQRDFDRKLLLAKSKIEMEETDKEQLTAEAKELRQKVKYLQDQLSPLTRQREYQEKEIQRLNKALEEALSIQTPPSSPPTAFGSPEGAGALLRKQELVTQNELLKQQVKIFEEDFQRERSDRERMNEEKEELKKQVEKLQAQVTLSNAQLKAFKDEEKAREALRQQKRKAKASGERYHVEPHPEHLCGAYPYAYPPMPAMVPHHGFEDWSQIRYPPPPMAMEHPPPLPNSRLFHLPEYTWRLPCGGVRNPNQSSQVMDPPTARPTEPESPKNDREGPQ
Take K288E: the “effect of a mutation on the interaction” value is on record as “with no effect”.

In another assay the parent is B3. The following applies: with amol2_human AMOTL2, Q9Y2J4.
Sequence of amol2_human AMOTL2, Q9Y2J4 (Q9Y2J4 whole entry): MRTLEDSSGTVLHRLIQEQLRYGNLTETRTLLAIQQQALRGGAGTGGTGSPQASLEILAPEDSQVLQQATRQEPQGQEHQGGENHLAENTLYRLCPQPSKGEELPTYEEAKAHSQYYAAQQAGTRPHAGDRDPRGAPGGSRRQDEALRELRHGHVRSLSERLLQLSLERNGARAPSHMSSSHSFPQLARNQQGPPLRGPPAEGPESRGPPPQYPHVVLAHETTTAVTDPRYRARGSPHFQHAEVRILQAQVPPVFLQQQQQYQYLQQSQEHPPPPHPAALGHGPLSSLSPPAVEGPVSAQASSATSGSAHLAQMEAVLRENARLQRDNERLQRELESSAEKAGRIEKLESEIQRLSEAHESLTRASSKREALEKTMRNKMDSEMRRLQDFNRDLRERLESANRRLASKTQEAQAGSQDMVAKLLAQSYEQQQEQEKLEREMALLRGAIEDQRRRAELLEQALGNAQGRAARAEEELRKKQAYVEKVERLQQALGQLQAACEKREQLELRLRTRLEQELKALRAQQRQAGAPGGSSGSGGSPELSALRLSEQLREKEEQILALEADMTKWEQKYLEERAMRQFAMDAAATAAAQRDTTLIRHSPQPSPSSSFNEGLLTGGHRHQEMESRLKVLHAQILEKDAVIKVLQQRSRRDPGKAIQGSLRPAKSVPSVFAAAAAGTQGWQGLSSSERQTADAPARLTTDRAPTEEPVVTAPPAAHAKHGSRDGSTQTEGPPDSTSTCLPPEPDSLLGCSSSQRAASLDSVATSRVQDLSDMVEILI
With K288E, the “effect of a mutation on the interaction” value is “with no effect”.

Variants of B3 are the subject of the next assay. Conditions: with atf4_human ATF4, P18848.
Sequence of atf4_human ATF4, P18848 (P18848 whole entry): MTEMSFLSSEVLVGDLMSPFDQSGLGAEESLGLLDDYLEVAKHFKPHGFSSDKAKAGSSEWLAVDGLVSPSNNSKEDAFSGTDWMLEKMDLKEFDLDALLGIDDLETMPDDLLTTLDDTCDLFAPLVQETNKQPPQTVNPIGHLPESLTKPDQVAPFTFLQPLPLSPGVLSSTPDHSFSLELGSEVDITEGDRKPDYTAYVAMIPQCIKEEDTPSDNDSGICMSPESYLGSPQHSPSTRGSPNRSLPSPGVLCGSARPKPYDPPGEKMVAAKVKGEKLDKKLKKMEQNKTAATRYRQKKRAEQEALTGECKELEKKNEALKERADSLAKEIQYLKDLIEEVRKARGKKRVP
For the variant K288E, the “effect of a mutation on the interaction” value was “with no effect”.

In the next assay the parent is B3. Conditions: with txlna_human TXLNA.
K288E: the “effect of a mutation on the interaction” value is listed as “with no effect”.
